In patent US20220003784A1 (ASSISTANCE PUBLIQUE H PITAUX DE MARSEILLE, published 2022):

Tests used:
Human long CD146 protein = biological target: T1, Human long CD146 protein
T1 chain: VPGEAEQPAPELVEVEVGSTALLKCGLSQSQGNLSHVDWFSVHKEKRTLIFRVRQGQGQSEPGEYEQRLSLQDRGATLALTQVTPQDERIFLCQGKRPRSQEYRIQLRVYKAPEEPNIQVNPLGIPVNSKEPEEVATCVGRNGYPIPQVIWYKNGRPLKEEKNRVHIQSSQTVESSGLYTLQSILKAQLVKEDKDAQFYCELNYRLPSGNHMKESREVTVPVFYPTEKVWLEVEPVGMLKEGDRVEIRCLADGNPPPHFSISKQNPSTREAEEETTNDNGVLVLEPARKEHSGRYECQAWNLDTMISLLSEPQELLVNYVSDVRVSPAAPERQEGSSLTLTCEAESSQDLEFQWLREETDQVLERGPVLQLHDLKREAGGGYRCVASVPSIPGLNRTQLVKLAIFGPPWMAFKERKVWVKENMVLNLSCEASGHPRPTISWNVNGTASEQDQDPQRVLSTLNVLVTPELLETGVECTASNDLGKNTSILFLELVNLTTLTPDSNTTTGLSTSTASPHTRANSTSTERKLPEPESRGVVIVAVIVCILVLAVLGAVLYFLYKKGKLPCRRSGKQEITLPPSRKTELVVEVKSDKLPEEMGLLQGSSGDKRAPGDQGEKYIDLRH

ADAM10 = biological target: T2, ADAM10 (UniProt O14672 214-748, limits assumed); assay: co-immunoprecipitation from ECFC in control condition (ADAM10 immunoprecipitated, CD146 isoforms detected by western blot)
T2 construct: Endogenous protein of ECFC endothelial cells
T2 sequence (looked up): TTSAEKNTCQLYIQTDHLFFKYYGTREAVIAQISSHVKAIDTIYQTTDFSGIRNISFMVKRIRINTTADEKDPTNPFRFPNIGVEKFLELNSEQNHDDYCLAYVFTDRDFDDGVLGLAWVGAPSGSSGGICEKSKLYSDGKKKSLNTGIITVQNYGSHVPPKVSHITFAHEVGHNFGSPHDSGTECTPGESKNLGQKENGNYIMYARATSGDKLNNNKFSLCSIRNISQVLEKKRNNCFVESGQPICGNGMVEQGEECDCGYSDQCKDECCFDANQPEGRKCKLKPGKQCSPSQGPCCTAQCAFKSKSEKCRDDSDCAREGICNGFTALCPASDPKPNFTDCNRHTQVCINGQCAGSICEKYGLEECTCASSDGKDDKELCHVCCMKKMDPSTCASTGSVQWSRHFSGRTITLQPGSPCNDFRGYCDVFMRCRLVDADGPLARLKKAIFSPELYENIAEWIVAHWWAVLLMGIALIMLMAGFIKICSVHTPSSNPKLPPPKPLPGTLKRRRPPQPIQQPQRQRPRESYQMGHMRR
Excerpt: C: ADAM10 was immunoprecipitated in ECFC cultured in basal condition (EBM2). The long (IgCD146) and short (shCD146) isoforms of CD146 were then detected by western blot using specific antibodies. Results are representative of 3 different experiments.

Binder	reduction of sCD146 secretion by ECFC under TNF after ADAM10 siRNA (Human long CD146 protein)	sCD146 secretion by ECFC in control condition after siRNA (Human long CD146 protein)	sCD146 secretion by a CHO clone stably expressing lgCD146 after transfection with an ADAM10 plasmid (Human long CD146 protein)	binding result (ADAM10)
ADAM10 (protein) TTSAEKNTCQLYIQTDHLFFKYYGTREAVIAQISSHVKAIDTIYQTTDFSGIRNISFMVKRIRINTTADEKDPTNPFRFPNIGVEKFLELNSEQNHDDYCLAYVFTDRDFDDGVLGLAWVGAPSGSSGGICEKSKLYSDGKKKSLNTGIITVQNYGSHVPPKVSHITFAHEVGHNFGSPHDSGTECTPGESKNLGQKENGNYIMYARATSGDKLNNNKFSLCSIRNISQVLEKKRNNCFVESGQPICGNGMVEQGEECDCGYSDQCKDECCFDANQPEGRKCKLKPGKQCSPSQGPCCTAQCAFKSKSEKCRDDSDCAREGICNGFTALCPASDPKPNFTDCNRHTQVCINGQCAGSICEKYGLEECTCASSDGKDDKELCHVCCMKKMDPSTCASTGSVQWSRHFSGRTITLQPGSPCNDFRGYCDVFMRCRLVDADGPLARLKKAIFSPELYENIAEWIVAHWWAVLLMGIALIMLMAGFIKICSVHTPSSNPKLPPPKPLPGTLKRRRPPQPIQQPQRQRPRESYQMGHMRR	ADAM10 and Tace siRNA reduced sCD146 secretion by 60% and 25%, respectively	only ADAM10 siRNA was able to inhibit sCD146 secretion and that the effect was similar to that of GM6001	in the presence of ADAM10, sCD146 secretion was significantly increased	–
Human short CD146 protein (other, Endogenous membrane isoform in ECFC, detected by western blot in immunoprecipitates from cell lysates; also expressed from a plasmid in CHO cells; also called shCD146; short isoform of CD146) VPGEAEQPAPELVEVEVGSTALLKCGLSQSQGNLSHVDWFSVHKEKRTLIFRVRQGQGQSEPGEYEQRLSLQDRGATLALTQVTPQDERIFLCQGKRPRSQEYRIQLRVYKAPEEPNIQVNPLGIPVNSKEPEEVATCVGRNGYPIPQVIWYKNGRPLKEEKNRVHIQSSQTVESSGLYTLQSILKAQLVKEDKDAQFYCELNYRLPSGNHMKESREVTVPVFYPTEKVWLEVEPVGMLKEGDRVEIRCLADGNPPPHFSISKQNPSTREAEEETTNDNGVLVLEPARKEHSGRYECQAWNLDTMISLLSEPQELLVNYVSDVRVSPAAPERQEGSSLTLTCEAESSQDLEFQWLREETDQVLERGPVLQLHDLKREAGGGYRCVASVPSIPGLNRTQLVKLAIFGPPWMAFKERKVWVKENMVLNLSCEASGHPRPTISWNVNGTASEQDQDPQRVLSTLNVLVTPELLETGVECTASNDLGKNTSILFLELVNLTTLTPDSNTTTGLSTSTASPHTRANSTSTERKLPEPESRGVVIVAVIVCILVLAVLGAVLYFLYKKGKLPCRRSGKQEMERNTSI	–	–	–	no binding
